Results from the supplement of paper PMC10126150.
± gives the standard deviation of the averaged measurements.
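Note: ATP exposure 15 min at 22 °C before imaging.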

What follows are sequences tested on ATP (assay: switch fluorescence ratio, 500 uM ATP over buffer (Cy3 cluster intensity, sum of 5 cycles each) (fold (ratio)); higher = stronger signal-on switching upon ATP binding; sequences stand for … in TCGTCGGCAGCGTCAGATGTGTATAAGAGACAGTTTTTTTTTTTTTTTTTTTTTTTTT…TC). Conditions: aptamer strand: ATP DNA aptamer (quencher-CACCTGGGGGAGTATTGCGGAGGAAGG + anchor), 100 nM annealed; ATP concentration: 500 uM.
Method in brief: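 After annealing to 100 nM quencher-labelled ATP aptamer, Cy3-labelled switching-strand clusters on a modified Illumina MiSeq flow-cell were imaged in selection buffer. A second image followed after 15 min with 500 uM ATP at 22 °C, and five such buffer/ATP cycles were done, each separated by NaOH stripping and re-annealing. The fluorescence ratio, averaged per switch-domain sequence, is summed target-cycle over summed buffer-cycle Cy3 intensity per cluster, with clusters outside 100-1000 RFU excluded.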
TCAGGGGCGC was tested, and the switch fluorescence ratio was 0.971 ± 0.031.
TCAGGGGGTG showed a switch fluorescence ratio of 1.05 ± 0.11.
Work on TCAGGGTCTT yielded a switch fluorescence ratio of 1.01 ± 0.011.
Work on TCAGGGTGGG yielded a switch fluorescence ratio of 1 ± 0.029.
For TCAGGTGTTT, the switch fluorescence ratio was 1.56 ± 0.51.
Sequence TCAGGTTCGT has a switch fluorescence ratio of 0.987 ± 0.01.
TCAGTAAATG was tested, and the switch fluorescence ratio was 0.969 ± 0.038.
TCAGTAGGGG showed a switch fluorescence ratio of 0.978 ± 0.068.
Work on TCAGTCGTGG yielded a switch fluorescence ratio of 0.9928 ± 0.0033.
TCAGTCTTTC showed a switch fluorescence ratio of 1.017 ± 0.0009.
TCAGTGGGGG showed a switch fluorescence ratio of 0.97 ± 0.019.
In the case of TCAGTGTGCC, the switch fluorescence ratio is reported as 0.995 ± 0.03.
Work on TCAGTTCTTC yielded a switch fluorescence ratio of 0.989 ± 0.011.
With TCAGTTGGGG the switch fluorescence ratio was 0.991 ± 0.011.
In the case of TCAGTTTGGA, the switch fluorescence ratio is reported as 1.01 ± 0.018.
TCAGTTTTCC showed a switch fluorescence ratio of 1.02 ± 0.018.
In the case of TCATAAGGCG, the switch fluorescence ratio is reported as 0.986 ± 0.046.
In the case of TCATAAGTGC, the switch fluorescence ratio is reported as 0.977 ± 0.011.
TCATAATGAT gave a switch fluorescence ratio of 1.005 ± 0.0032.
TCATACATTT showed a switch fluorescence ratio of 0.9801 ± 0.0049.
With TCATACCCTG the switch fluorescence ratio was 1.024 ± 0.0061.
With TCATACTCAA the switch fluorescence ratio was 1.4 ± 0.018.
For TCATAGGTAC, the switch fluorescence ratio was 1.04 ± 0.031.
In the case of TCATCAATAT, the switch fluorescence ratio is reported as 1.09 ± 0.067.
In the case of TCATCACCGT, the switch fluorescence ratio is reported as 1.01 ± 0.021.
TCATCATGTT gave a switch fluorescence ratio of 1.01 ± 0.043.
Work on TCATCCCGGG yielded a switch fluorescence ratio of 1.052 ± 0.0077.
TCATCGGGG showed a switch fluorescence ratio of 0.947 ± 0.027.
Sequence TCATGAGGGG has a switch fluorescence ratio of 0.972 ± 0.036.
TCATGCATCT was tested, and the switch fluorescence ratio was 1.01 ± 0.072.
TCATGGGATG was tested, and the switch fluorescence ratio was 1.02 ± 0.018.
Sequence TCATGGGGAG has a switch fluorescence ratio of 1.03 ± 0.033.
TCATGGGGGG gave a switch fluorescence ratio of 1.007 ± 0.01.
Sequence TCATGGTCGT has a switch fluorescence ratio of 0.982 ± 0.023.
With TCATGGTGTC the switch fluorescence ratio was 1.01 ± 0.018.
In the case of TCATGTAGAA, the switch fluorescence ratio is reported as 1.01 ± 0.02.
Work on TCATGTGACT yielded a switch fluorescence ratio of 1.02 ± 0.053.
TCATTATGAA gave a switch fluorescence ratio of 0.987 ± 0.054.
TCATTCAAGG gave a switch fluorescence ratio of 1.02 ± 0.013.
TCATTCGGTG showed a switch fluorescence ratio of 1.05 ± 0.041.
For TCATTGGCAT, the switch fluorescence ratio was 1.03 ± 0.037.
TCATTGGGGA showed a switch fluorescence ratio of 1.032 ± 0.0071.
TCATTTTCTT showed a switch fluorescence ratio of 0.9688 ± 0.0049.
TCATTTTGTT gave a switch fluorescence ratio of 1 ± 0.028.
TCCAAAATGG showed a switch fluorescence ratio of 1.09 ± 0.04.
TCCAAACTGT was tested, and the switch fluorescence ratio was 1.01 ± 0.051.
In the case of TCCAAGAGTT, the switch fluorescence ratio is reported as 0.989 ± 0.0055.
TCCAAGTGTT gave a switch fluorescence ratio of 0.998 ± 0.035.
With TCCAATATGG the switch fluorescence ratio was 1.05 ± 0.094.
In the case of TCCAATGTAA, the switch fluorescence ratio is reported as 1.06 ± 0.041.
Work on TCCACAGTGG yielded a switch fluorescence ratio of 1.35 ± 0.41.
For TCCACCCTT, the switch fluorescence ratio was 1.03 ± 0.013.
Sequence TCCACGGATG has a switch fluorescence ratio of 1.04 ± 0.047.
In the case of TCCAGAGATG, the switch fluorescence ratio is reported as 0.997 ± 0.028.
In the case of TCCAGAGCGG, the switch fluorescence ratio is reported as 1.34 ± 0.47.
In the case of TCCAGGATAT, the switch fluorescence ratio is reported as 1.03 ± 0.046.
TCCAGGGGAA was tested, and the switch fluorescence ratio was 1.03 ± 0.014.
For TCCAGGGGCG, the switch fluorescence ratio was 1.73 ± 0.99.
TCCAGGGGGA gave a switch fluorescence ratio of 1.1 ± 0.051.
For TCCAGGGTAC, the switch fluorescence ratio was 1.23 ± 0.18.
Sequence TCCAGGGTTA has a switch fluorescence ratio of 1.031 ± 0.0058.
For TCCAGTTGCT, the switch fluorescence ratio was 1.02 ± 0.033.
For TCCAGTTGTA, the switch fluorescence ratio was 0.99 ± 0.019.
TCCATCGGGG showed a switch fluorescence ratio of 1.01 ± 0.013.
In the case of TCCATGGGAC, the switch fluorescence ratio is reported as 1.03 ± 0.041.
TCCATGTGCC showed a switch fluorescence ratio of 1.14 ± 0.14.
For TCCCATGTTT, the switch fluorescence ratio was 0.963 ± 0.032.
For TCCCGAGGGG, the switch fluorescence ratio was 1.083 ± 0.01.
TCCCGGGACA showed a switch fluorescence ratio of 1.79 ± 1.1.
Work on TCCCGGTTTT yielded a switch fluorescence ratio of 1.1 ± 0.11.
TCCCTGGACT was tested, and the switch fluorescence ratio was 1.023 ± 0.0099.
With TCCGAATTGG the switch fluorescence ratio was 1.05 ± 0.022.
For TCCGAGGGAT, the switch fluorescence ratio was 2.25 ± 1.3.
With TCCGATGGGT the switch fluorescence ratio was 1.145 ± 0.0095.
With TCCGCACCGT the switch fluorescence ratio was 1.76 ± 0.23.
TCCGGAGGAC showed a switch fluorescence ratio of 1.86 ± 0.03.
In the case of TCCGGAGGGT, the switch fluorescence ratio is reported as 1.05 ± 0.06.
In the case of TCCGGATCGG, the switch fluorescence ratio is reported as 1.03 ± 0.012.
TCCGGCACGT gave a switch fluorescence ratio of 1.01 ± 0.019.
Sequence TCCGGCCAGC has a switch fluorescence ratio of 1.28 ± 0.025.
TCCGGGATGG showed a switch fluorescence ratio of 1.33 ± 0.39.
Sequence TCCGGGGAGC has a switch fluorescence ratio of 1.06 ± 0.015.
In the case of TCCGGGGTTG, the switch fluorescence ratio is reported as 0.988 ± 0.046.
TCCGGGTGTA was tested, and the switch fluorescence ratio was 1.14 ± 0.22.
In the case of TCCGGGTTGG, the switch fluorescence ratio is reported as 1.03 ± 0.013.
For TCCGGTCGAT, the switch fluorescence ratio was 1.127 ± 0.0072.
Sequence TCCGGTGACG has a switch fluorescence ratio of 0.968 ± 0.033.
TCCGGTTTCG showed a switch fluorescence ratio of 1.02 ± 0.039.
In the case of TCCGTTAAGA, the switch fluorescence ratio is reported as 1.083 ± 0.0019.
Work on TCCGTTATTT yielded a switch fluorescence ratio of 1.021 ± 0.0092.
For TCCGTTGGTG, the switch fluorescence ratio was 1.01 ± 0.072.
TCCTAAAAGT was tested, and the switch fluorescence ratio was 1.01 ± 0.021.
TCCTAAACGT showed a switch fluorescence ratio of 1.072 ± 0.0029.
TCCTAGGTTT showed a switch fluorescence ratio of 1 ± 0.015.
TCCTATATTG gave a switch fluorescence ratio of 0.986 ± 0.0023.
TCCTGAGTTT was tested, and the switch fluorescence ratio was 0.991 ± 0.047.
TCCTGATTCT was tested, and the switch fluorescence ratio was 1.03 ± 0.033.
Work on TCCTGATTGT yielded a switch fluorescence ratio of 0.988 ± 0.022.
In the case of TCCTGGGTTG, the switch fluorescence ratio is reported as 0.99 ± 0.066.
With TCCTTAACTT the switch fluorescence ratio was 1.02 ± 0.061.
